This test concerns the target histones (calf thymus, type IIIS) (calf (thymus)) (UniProt P02253). The experiment in a line: ITC. On the technique in general: Isothermal titration calorimetry measures the heat released or taken up as one component is titrated into another.
Chain of UniProt P02253 (P02253 whole entry): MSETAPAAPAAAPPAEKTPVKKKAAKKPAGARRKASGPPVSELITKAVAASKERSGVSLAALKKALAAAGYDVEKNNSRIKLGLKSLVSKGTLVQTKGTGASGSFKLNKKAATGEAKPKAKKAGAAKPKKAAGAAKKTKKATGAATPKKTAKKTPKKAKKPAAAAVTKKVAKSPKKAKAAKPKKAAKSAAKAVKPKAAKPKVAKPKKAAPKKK

“large fibrin degradation products (molecular masses >150 kDa) (from UniProt P02671 36-866; P02675 45-491; P02679 27-453) (complex)” showed a dissociation constant Kd of 191 nM.

What is called Kd is a measure of binding affinity in units of concentration.

Source of the values: PMC3591605.
